In paper PMC3963902, “Esterase LpEst1 from Lactobacillus plantarum: A Novel and Atypical Member of the αβ Hydrolase Superfamily of Enzymes” (PLoS ONE, 2014) one finds Km, Vmax and kcat data, which are given here for 1 protein.

Substrate in data set [1]: CC(=O)Oc1ccc([N+](=O)[O-])cc1
Kind of data set: spectrophotometric p-nitrophenol release. The note with it: 50 mM sodium phosphate, pH 7.0, 30 °C. Type of data set: biochemical, Lactiplantibacillus plantarum. An excerpt:
(§1) spectrophotometric p-nitrophenol release on LpEst1

Substrate in data set [2]: CCCC(=O)Oc1ccc([N+](=O)[O-])cc1
Kind of data set: spectrophotometric p-nitrophenol release. Type of data set: biochemical, Lactiplantibacillus plantarum. The conditions noted are these: 50 mM sodium phosphate, pH 7.0, 30 °C.
Source text: as §1

B1: LpEst1 (Lactiplantibacillus plantarum) (protein)
chain: MPTINSIQTTVNGVVKIVKPFNNDIAGEQFDPHVLQTLTAFKQPAILENDLAALRSGSLTPAIADPVGDAVTVQSRNITALNRTVSVEWLTPQNVINHTVLVYFHGGAFYGGVPGNNTVLLKLVAAKSHCEILNVDYSLAPEAPAPAGILDGLAIFQYLEQRDAETMITVAGDSAGANVIMAATNLNQQLGSNRINQQLLLYPVTAPNADHAGPLWDLAAFPIIDSQRAILTNYHDLFRQLDSIMTDYYVPENFDSHSPLISPLHQENFTMTPPTTIMVGEFDPFRPQAWAYAQRLAAADTATTFIQYQGLNHAFAPLVDQYWQSQDVAQVMAAALI
notes: homodimer
B1: in data set [1], the Michaelis-Menten constant (Km) was 380 ± 50 µM, the Vmax came to 75 µmol/min/mg and the kcat came to 40.4 ± 2 s⁻¹. Also, in data set [2], the Km was 200 ± 100 µM, the Vmax was 8 µmol/min/mg and the kcat came to 4.4 ± 0.3 s⁻¹.
